Data taken from FireProtDB (doi:10.1002/pro.5560051112).
Several values for one entry are separate records, joined by “and”; a condition that tells them apart may be missing. Equal entries are not always repeated.

B1: Beta-glucanase wild type, P07980 (protein)
chain: MKRVLLILVTGLFMSLCGITSSVSAQTGGSFFEPFNSYNSGLWQKADGYSNGDMFNCTWRANNVSMTSLGEMRLALTSPSYNKFDCGENRSVQTYGYGLYEVRMKPAKNTGIVSSFFTYTGPTEGTPWDEIDIEFLGKDTTKVQFNYYTNGAGNHEKFADLGFDAANAYHTYAFDWQPNSIKWYVDGQLKHTATTQIPAAPGKIMMNLWNGTGVDDWLGSYNGVNPIYAHYDWMRYRKK
B2: Beta-glucanase wild type, P23904 (protein)
chain: MKKKSCFTLVTTFAFSLIFSVSALAGSVFWEPLSYFNRSTWEKADGYSNGGVFNCTWRANNVNFTNDGKLKLGLTSSAYNKFDCAEYRSTNIYGYGLYEVSMKPAKNTGIVSSFFTYTGPAHGTQWDEIDIEFLGKDTTKVQFNYYTNGVGGHEKVISLGFDASKGFHTYAFDWQPGYIKWYVDGVLKHTATANIPSTPGKIMMNLWNGTGVDDWLGSYNGANPLYAEYDWVKYTSN

Settings: pH 6, Thermal, DSC, Sodium cacodylate 2 mM, reversible: yes(>80%), whole UniProt chain shown; for unfolding free energy: 25 °C
[1] = Paenibacillus macerans, CaCl2 1 mM

Row | Protein | Tm (Bacillus amyloliquefaciens, CaCl2 1 mM) | Tm (Bacillus amyloliquefaciens) | unfolding free energy [1] | unfolding free energy (Paenibacillus macerans) | Tm [1] | unfolding enthalpy (calorimetric) [1] | Tm (Paenibacillus macerans) | unfolding enthalpy (calorimetric) (Paenibacillus macerans)
1 | B1 | 58.9 °C | 48.7 °C | – | – | – | – | – | –
2 | B2 | – | – | 9 kcal/mol | 6.1 kcal/mol | 50.8 °C and 50.5 °C | 139 kcal/mol and 156 kcal/mol | 44.5 °C | 119 kcal/mol
